Earlier results as cited in paper PMC7677405.

Molecular target: insulin receptor (Homo sapiens) (UniProt P06213)
Sequence of UniProt P06213 (P06213 763-1382): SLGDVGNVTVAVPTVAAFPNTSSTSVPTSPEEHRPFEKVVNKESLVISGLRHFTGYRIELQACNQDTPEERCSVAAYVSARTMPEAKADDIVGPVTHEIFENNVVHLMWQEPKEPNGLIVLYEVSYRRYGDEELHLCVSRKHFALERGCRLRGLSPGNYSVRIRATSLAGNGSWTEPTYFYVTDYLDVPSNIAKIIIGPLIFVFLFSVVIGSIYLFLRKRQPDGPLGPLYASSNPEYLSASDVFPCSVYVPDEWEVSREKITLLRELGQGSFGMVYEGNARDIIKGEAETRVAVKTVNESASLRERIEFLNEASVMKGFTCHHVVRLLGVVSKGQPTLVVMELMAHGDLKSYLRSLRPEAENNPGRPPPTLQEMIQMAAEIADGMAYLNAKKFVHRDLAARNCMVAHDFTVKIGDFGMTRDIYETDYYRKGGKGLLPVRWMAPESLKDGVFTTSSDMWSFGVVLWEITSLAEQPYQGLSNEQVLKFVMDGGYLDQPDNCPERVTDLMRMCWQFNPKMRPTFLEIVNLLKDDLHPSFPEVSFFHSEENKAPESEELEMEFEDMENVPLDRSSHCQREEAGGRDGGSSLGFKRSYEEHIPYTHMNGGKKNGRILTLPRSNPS

Sequence of insulin (P01308 90-110): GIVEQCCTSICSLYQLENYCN

In the case of insulin (from UniProt P01308), the Kd is listed as 0.028 µM.
